Measurements published in patent publication US20170226192A1.
Positions count from the first letter of the chain named.

How the values were obtained:
[1] = target: Ravn pin peptide […] (Marburg virus, strain Ravn); assay: pin peptide ELISA, pin D6; overflow value is greater than 3.9
[2] = target: Ravn pin peptide … (Marburg virus, strain Ravn); assay: pin peptide ELISA, pin D5; overflow value is greater than 3.9
[3] = target: Ravn pin peptide … (Marburg virus, strain Ravn); assay: pin peptide ELISA, pin D4
[4] = target: Ravn pin peptide … (Marburg virus, strain Ravn); assay: pin peptide ELISA, pin printed as D5
[5] = target: Ravn pin peptide … (Marburg virus, strain Ravn); assay: pin peptide ELISA, pin printed as D6
[6] = target: Ravn pin peptide … (Marburg virus, strain Ravn); assay: pin peptide ELISA, pin D4; overflow value is greater than 3.9
[7] = target: Ravn pin peptide … (Marburg virus, strain Ravn); assay: pin peptide ELISA, pin D5
[8] = target: Ravn pin peptide … (Marburg virus, strain Ravn); assay: pin peptide ELISA, pin D6

B1: CAN30G5 (antibody, V domains shown)
VH: EVQLVESGGGLVQPKGSLKLSCAASGFAFNSYAMHWVCQAPGKGLEWVARIRIKSGNYATSYAGSVTDRFTVSRDDSQNLFYLQMNNLKTEDTAMYYCVREWEGAMDYWGQGTSVTVSS
VL: DIVLTQSPLSLPVSLGDQASISCRSSQSLVHSNGNTYLHWYLQKPGQSPNLLIYKVSNRFSGVPDRFSGSGSGTDFTLKISRVEAEDLGVYFCSQSTHVPWTFGGGTKLEIK
Absorbance (1 hour) [1]: > 3.9 | Absorbance (1 hour) [2]: > 3.9 | Absorbance (1 hour) [3]: 0.631

B2: CAN54G2 (antibody, V domains shown)
VH: QVQLQQSGTELVRPGTSVKISCKASGYDFTNFWLGWIKQRPGHGLEWIGDIYPGGDNTYYNEKFKGKVTLTADKSSNTAYMQFSSLTSEDSAVYFCFMILYTLDYWGQGTSVTVSS
VL: not shown
Absorbance (1 hour) [4]: 2.76 | Absorbance (1 hour) [5]: 1.85

B3: CAN30G4 (antibody, V domains shown)
VH: EVKLVESGGGLVKSGGSLKLSCAVSGFTFSTYAMSWVRQIPEKRLEWVATISNGGSYIYYSDSVKGRFTISRDNAKNTLYLQMSSLRSEDTAMYYCARHRESYRYDWFAYWGQGTLVTVSA
VL: DVLMTQTPLSLPVSLGDQASISCRSSQNIVHSDGNTYLEWYLQKPGQSPKLLIYKFSNRFSGVPDRFSGSGSGTDFTLKISRVEAEDLGVYYCFQGSHVPPTFGAGTKLELK
Absorbance (1 hour) [6]: > 3.9 | Absorbance (1 hour) [7]: 1.97

B4: CAN30G3 (antibody, V domains shown)
VH: QVQLKESGPGLVAPSQSLSITCTVSGFSLTDYGITWIRQPPGKGLEWLGVIWGGGSAYYNLVLKSRLSISKDNSKSQVFLKMNSLQTDDTAMYYCAKHRTLITTAMDYWGQGISVTVSS
VL: B3 VL with D33N, P45S, F56V, V99F, P101W, A105G, L111I
Absorbance (1 hour) [8]: 1.12 | Absorbance (1 hour) [7]: 1.84
